Experimental data: doi:10.1101/2025.11.11.687647 (bioRxiv, 2025)

Target: the molecule itself
Assay: cryo-EM structure

B1: CT–PT–BCCP fragment of MtPC (degradation product) (domain or fragment)
chain: ADRGTKILNFLADVTVNNPYGSRPSTIYPDDKLPDLDLRAAPPAGSKQRLVKLGPEGFARWLRESAAVGVTDTTFRDAHQSLLATRVRTSGLSRVAPYLARTMPQLLSVECWGGATYDVALRFLKEDPWERLATLRAAMPNICLQMLLRGRNTVGYTPYPEIVTSAFVQEATATGIDIFRIFDALNNIESMRPAIDAVRETGSAIAEVAMCYTGDLTDPGEQLYTLDYYLKLAEQIVDAGAHVLAIKDMAGLLRPPAAQRLVSALRSRFDLPVHLHTHDTPGGQLASYVAAWHAGADAVDGAAAPLAGTTSQPALSSIVAAAAHTEYDTGLSLSAVCALEPYWEALRKVYAPFESGLPGPTGRVYHHEIPGGQLSNLRQQAIALGLGDRFEEIEEAYAGADRVLGRLVKVTPTSKVVGDLALALVGAGVSADEFASDPARFGIPESVLGFLRGELGDPPGGWPEPLRTAALAGRGAARPTAQLAADDEIALSSVGAKRQATLNRLLFPSPTKEFNEHREAYGDTSQLSANQFFYGLRQGEEHRVKLERGVELLIGLEAISEPDERGMRTVMCILNGQLRPVLVRDRSIASAVPAAEKADRGNPGHIAAPFAGVVTVGVCVGERVGAGQTIATIEAMKMEAPITAPVAGTVERVAVSDTAQVEGGDLLVVVS
stoichiometry N: 2
